Laboratory results published in PMC6346018 (Scientific Reports, 2019).

How the values were obtained:
[1] = molecular target: T1, light-activated and phosphorylated rhodopsin in rod outer segment membranes (P-ROS*) (UniProt P02699 1-348, phosphorylated by endogenous GRK1: mixture of species with up to seven phosphate groups per molecule, sites not stated); assay: pull-down; 1.5 µg purified arrestin-1-mCherry and 15 µg (rhod-)opsin in native ROS membranes, 50 µl, 100 mM Hepes pH 7.0, 100 mM NaCl, 1 mM DTT, 0.1 mM EDTA; P-ROS* and ROS* illuminated 2.5 min (495 nm long-pass), others kept dark; centrifuged at 4 °C, pellet washed, mCherry fluorescence; conditions: one partner purified
T1 construct: rhodopsin, endogenous in native rod outer segment (ROS) disc membranes (isolated membranes, not whole cells); also called ROS-P*; source: rod outer segment disc membranes isolated from native source; phosphorylated by endogenously available GRK1; illuminated
T1 sequence (P02699 whole entry): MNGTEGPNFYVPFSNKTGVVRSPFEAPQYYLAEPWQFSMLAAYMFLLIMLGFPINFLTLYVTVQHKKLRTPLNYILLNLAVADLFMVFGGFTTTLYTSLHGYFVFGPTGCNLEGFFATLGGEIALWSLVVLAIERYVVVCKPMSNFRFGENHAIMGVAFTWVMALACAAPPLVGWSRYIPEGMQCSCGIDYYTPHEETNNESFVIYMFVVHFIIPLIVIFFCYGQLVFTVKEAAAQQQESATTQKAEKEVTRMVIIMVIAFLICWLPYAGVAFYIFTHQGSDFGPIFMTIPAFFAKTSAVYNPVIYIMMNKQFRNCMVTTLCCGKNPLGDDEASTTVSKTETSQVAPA

[2] = molecular target: T1, light-activated and phosphorylated …; assay: pull-down; cleared bacterial lysate with arrestin-mCherry mixed with ROS-P* membranes; 10 mM Hepes pH 7.0, 1 mM DTT, 1 mM MgCl2, 0.1 mM EDTA, NaCl from 100 mM to 3.949 M; 37 °C, 5 min incubation, light activated 6 min; membranes pelleted, washed, mCherry fluorescence of the pellet; IC50 of NaCl for complex formation; conditions: partners not purified
[3] = molecular target: T1, light-activated and phosphorylated …; assay: as above; conditions: partners not purified; remark: listed apart in the source

activity level relative to WT [1] [%]	IC50 of NaCl for complex formation [2] [M]	IC50 of NaCl relative to WT [3] [%]	Binder
106			arrestin-1-mCherry-Strep-tag double mutant T304A + F375A, HEK293-expressed and purified (natural protein, bovine, UniProt P08168 1-404, looked up, arrestin-1 (visual arrestin), bovine, UniProt P08168; also called T304A + F375A double mutant; source: HEK293, transiently transfected (pcDNA3.1), one-step purified (Strep-Tactin); not shown: mCherry, C-terminal, kept) MKANKPAPNHVIFKKISRDKSVTIYLGKRDYIDHVERVEPVDGVVLVDPELVKGKRVYVSLTCAFRYGQEDIDVMGLSFRRDLYFSQVQVFPPVGASGATTRLQESLIKKLGANTYPFLLTFPDYLPCSVMLQPAPQDVGKSCGVDFEIKAFATHSTDVEEDKIPKKSSVRLLIRKVQHAPRDMGPQPRAEASWQFFMSDKPLRLAVSLSKEIYYHGEPIPVTVAVTNSTEKTVKKIKVLVEQVTNVVLYSSDYYIKTVAAEEAQEKVPPNSSLTKTLTLVPLLANNRERRGIALDGKIKHEDANLASSTIIKEGIDKTVMGILVSYQIKVKLTVSGLLGELTSSEVATEVPFRLMHPQPEDPDTAKESFQDENAVFEEFARQNLKDAGEYKEEKTDQEAAMDE
	1.51	502	arrestin-1-mCherry double mutant T304A + F375A, bacterial lysate (natural protein, bovine, UniProt P08168 1-404, looked up, arrestin-1 (visual arrestin), bovine, UniProt P08168; not shown: mCherry, C-terminal, kept) MKANKPAPNHVIFKKISRDKSVTIYLGKRDYIDHVERVEPVDGVVLVDPELVKGKRVYVSLTCAFRYGQEDIDVMGLSFRRDLYFSQVQVFPPVGASGATTRLQESLIKKLGANTYPFLLTFPDYLPCSVMLQPAPQDVGKSCGVDFEIKAFATHSTDVEEDKIPKKSSVRLLIRKVQHAPRDMGPQPRAEASWQFFMSDKPLRLAVSLSKEIYYHGEPIPVTVAVTNSTEKTVKKIKVLVEQVTNVVLYSSDYYIKTVAAEEAQEKVPPNSSLTKTLTLVPLLANNRERRGIALDGKIKHEDANLASSTIIKEGIDKTVMGILVSYQIKVKLTVSGLLGELTSSEVATEVPFRLMHPQPEDPDTAKESFQDENAVFEEFARQNLKDAGEYKEEKTDQEAAMDE
